The text below walks through data of patent US7563582B2, “Process for screening chemical compounds for modulating the interaction of an EVH1 domain and a process for detecting said interaction” (sanofi-aventis Deutschland GmbH, priority 2000, dated 2009).

The target in one assay is T1, VASP/zyxin interaction (Homo sapiens, UniProt P50552).
T1 construct: made in house; host or cells: VASP: insect cells (baculovirus); GST-zyxin(1-142): E. coli, given only for the homogeneous assay
Nature of the assay: VASP-zyxin solid-phase (DELFIA) assay, competition with peptides. Format: binding. As to conditions: competing zyxin peptides, FIG. 2. As to the method:
In the solid-phase assay, a binding partner (VASP or zyxin) was immobilized on the surface of a microtiter plate (MTP) (=coating). The unsaturated binding sites on the surface of the plastic were blocked, and the surface was then incubated with the respective other binding partners. After the incubation, excess unattached protein was removed in a washing step. Using suitable antibodies, it was now possible to detect and quantify the specifically bound protein. Here, it was possible to improve the signal-noise (S/N) ratio considerably by using lanthanide chelates as fluorescent labels for the antibodies and the measurement of the time-resolved fluorescence.
For the solid-phase assay, the best coating and incubation conditions were characterized. […] For detecting VASP specifically bound to the immobilized zyxin, it was possible to use monoclonal antibodies against VASP which can be detected using lanthanide-labeled antibodies against mouse IgGs (Wallac: DELFIA anti-mouse-Eu(N1)).
The current assay protocol comprised 5 incubation steps and 3 washing steps: • 1. Incubation of the empty MTPs with GST-zyxin(1-142) (coating); • 2. Blocking with BSA (bovine serum albumin); • 3. Washing with PBS (wash buffer); • 4. Incubation with VASP (ligand) (with and without test substances); • 5. Washing with PBS; • 6. Incubation with detection mix: α-VASP (monoclonal anti-VASP antibody)+α-mouse-Eu (europium-labeled anti-mouse antibodies from Wallac); • 7. Washing with DELFIA wash solution; and • 8. Release of the bound lanthanide complex and fluorimetric measurement.
The optimum conditions for coating (GST-zyxin(1-142)) and ligand incubation (VASP) were determined by titrating the reagents. […] The volume per well used depended on the selected MTP format (50 μl or 100 μl for 96-well plates, 20 μl for 384-well plates).
Thus far, there are no known non-peptidergic inhibitors of the VASP/zyxin interaction To simulate the action of potential inhibitors, inhibition experiments were carried out using competing peptides which contained the VASP binding motif of zyxin (FPPPP (SEQ. ID. NO. 1)). […]

Another assay has as its target VASP/ActA interaction (Homo sapiens, UniProt P50552). The note with it: peptides with mutations in the FPPPP motif; cited from earlier work.

T1 sequence (P50552 whole entry): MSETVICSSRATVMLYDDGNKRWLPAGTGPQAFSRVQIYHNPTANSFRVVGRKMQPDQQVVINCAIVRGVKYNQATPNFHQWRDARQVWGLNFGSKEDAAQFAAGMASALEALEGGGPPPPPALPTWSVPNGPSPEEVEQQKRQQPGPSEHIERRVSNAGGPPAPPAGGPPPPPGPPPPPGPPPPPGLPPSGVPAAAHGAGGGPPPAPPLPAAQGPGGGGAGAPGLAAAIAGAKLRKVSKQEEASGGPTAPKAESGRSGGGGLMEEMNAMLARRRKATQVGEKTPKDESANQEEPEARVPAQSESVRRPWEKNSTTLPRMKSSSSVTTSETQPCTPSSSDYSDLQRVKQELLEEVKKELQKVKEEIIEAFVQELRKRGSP
VASP/ActA interaction, sequence (P50552 whole entry, species assumed): as the sequence (P50552 whole entry) above

As to “APPPP: competing zyxin peptide containing the mutated VASP binding motif APPPP”, the “apparent inhibition constants of the peptides (rank order of inhibition)” value (shortened to “apparent inhibition constants”) in the assay with VASP/zyxin interaction is on record as “WPPPP (SEQ. ID. NO. 2)>FPPPP (SEQ. ID. NO. 1)>APPPP (SEQ. ID. NO. 3)”. For the same substance, the “inhibition of the VASP/ActA interaction (relative to wild type sequence FPPPP)” value with VASP/ActA interaction is given as “considerably worse inhibition”.
For “FPPPP: competing peptide containing the wild type VASP binding motif of zyxin, FPPPP”, the “apparent inhibition constants” value with VASP/zyxin interaction was “WPPPP (SEQ. ID. NO. 2)>FPPPP (SEQ. ID. NO. 1)>APPPP (SEQ. ID. NO. 3)”. For the same substance, in the assay with VASP/ActA interaction, the “inhibition of the VASP/ActA interaction (relative to wild type sequence FPPPP)” value was “WPPPP (SEQ. ID. NO. 2)>FPPPP (SEQ. ID. NO. 1)>APPPP (SEQ. ID. NO. 3)”.
Consider “WPPPP: competing zyxin peptide containing the mutated VASP binding motif WPPPP”, for which the “apparent inhibition constants” value in the assay with VASP/zyxin interaction is listed as “WPPPP (SEQ. ID. NO. 2)>FPPPP (SEQ. ID. NO. 1)>APPPP (SEQ. ID. NO. 3)”. The “inhibition of the VASP/ActA interaction (relative to wild type sequence FPPPP)” value with VASP/ActA interaction is on record as “even better inhibition”.
